Measurements: patent publication US20210284750A1, “Immunoconjugate Synthesis Method” (priority 2017, published 2021)

Experiments:
[1] = test system: Human antigen presenting cells (APCs); assay: APC-tumor co-culture: myeloid activation by flow cytometry; assay type: cell-based; settings: 18 hours; for myeloid activation: APC-tumor co-culture
Description: (§1) Isolation of Human Antigen Presenting Cells. Human antigen presenting cells (APCs) were negatively selected from human peripheral blood mononuclear cells obtained from healthy blood donors (Stanford Blood Center) by density gradient centrifugation using a RosetteSep Human Monocyte Enrichment Cocktail (Stem Cell Technologies) containing monoclonal antibodies against CD14, CD16, CD40, CD86, CD123, and HLA-DR. Immature APCs were subsequently purified to >97% purity via negative selection using an EasySep Human Monocyte Enrichment Kit without CD16 depletion containing monoclonal antibodies against CD14, CD16, CD40, CD86, CD123, and HLA-DR.
(§2) Preparation of Tumor Cells. Tumor cells were resuspended in PBS with 0.1% fetal bovine serum (FBS) at 1 to 10×10^6 cells/mL. Cells were subsequently incubated with 2 μM CFSE to yield a final concentration of 1 μM. The reaction was ended after 2 minutes via the addition of 10 mL complete medium with 10% FBS and washed once with complete medium. Cells were either fixed in 2% paraformaldehyde and washed three times with PBS or left unfixed prior to freezing the cells in 10% DMSO, 20% FBS and 70% medium.
(§3) APC-Tumor Co-cultures. […] Cells and cell-free supernatants were analyzed after 18 hours via flow cytometry or ELISA.

[2] = test system: Human antigen presenting cells (APCs); assay: APC-tumor co-culture: cytokine secretion in cell-free supernatants (ELISA); assay type: cell-based; settings: 18 hours
Description: as §1, §2, §3

[3] = APCs with CFSE-labeled tumor cells, various concentrations, flow cytometry

B1: CD20 (protein, UniProt P11836 1-297, looked up)
B-lymphocyte antigen CD20: MTTPRNSVNGTFPAEPMKGPIAMQSGPKPLFRRMSSLVGPTQSFFMRESKTLGAVQIMNGLFHIALGGLLMIPAGIYAPICVTVWYPLWGGIMYIISGSLLAATEKNSRKCLVKGKMIMNSLSLFAAISGMILSIMDILNIKISHFLKMESLNFIRAHTPYINIYNCEPANPSEKNSPSTQYCYSIQSLFLGILSVMLIFAFFQELVIAGIVENEWKRTCSRPKSNIVLLSAEEKKEQTIEIKEEVVGLTETSSQPKNEEDIEIIPIQEEEEEETETNFPEPPQDQESSPIENDSSP
With B1 the “myeloid activation” value [1] was “does not”, the “myeloid activation” value ([1]; listed as unconjugated CD20 antibody) was “do not” and the “myeloid activation as indicated by CD14 downregulation” value [1, 3] was “does not”. For the same molecule, the “myeloid activation as indicated by CD16 downregulation” value [1, 3] was “does not”, the “myeloid activation as indicated by CD40 upregulation” value [1, 3] was “does not” and the “myeloid activation as indicated by CD86 upregulation” value [1, 3] was “does not”. The “myeloid activation as indicated by CD123 upregulation” value [1, 3] was “does not”, the “myeloid activation as indicated by HLA-DR upregulation” value [1, 3] was “does not” and the “cytokine secretion” value [2] was “do not”.
